Patent US20070087000A1 (Pfizer, published 2007)

What was measured:
[1] = molecular target: T1, Human GDF-8 (mature, recombinant dimer), biotinylated in the ELISAs (human, UniProt O14793 267-375, biotinylated in the direct and competition ELISAs (sites not given)); experiment: competition ELISA: RK35 inhibits binding of biotinylated GDF-8 to immobilized ActRIIB-Fc; competition ELISA, biotinylated GDF-8 to immobilized ActRIIB-Fc
T1 construct: It was not biotinylated in the reporter assay; also called myostatin; growth and differentiation factor-8

[2] = molecular target: T1, Human GDF-8 (mature, recombinant …); experiment: competition ELISA: soluble ActRIIB-Fc as competitor of biotinylated GDF-8 binding to immobilized ActRIIB-Fc

Row | IC50 [1] | IC50 (read off the curve) [2] | Binder
1 | ~2.5 nM |  | RK35 anti-GDF-8 mouse monoclonal antibody (antibody, V domains shown, Murine monoclonal antibody from a hybridoma (myostatin knockout BALB/c mice immunised with recombinant GDF-8 dimer); also called RK35 mAb; murine RK35) VH: EVQLVESGGGLVKPGGSLKLSCAASGFTFSSYAMSWVRQTPEKRLEWVATISSGGSYTSYPDSVKGRFTISRDNAKNTLYLQMSSLRSEDTAMYYCARQDYAMNYWGQGTSVTVSS VL: DIEMTQSHKFMSTSVGDRVSITCKASQDVSTAVAWYQQKPGQSPKLLLYSASYRYTGVPDRFTGSGSGTDFTFTISSVQAEDLAVYYCQQHYSTPWTFGGGTKLEIK
2 |  | ~0.3 nM | Recombinant ActRIIB-Fc chimera (human ActRIIB fused to the human IgG constant region, Fc) (Fc fusion, UniProt Q13705 19-137, looked up, extracellular domain; The same protein was used immobilised and as the soluble positive control; also called soluble ActRIIB; soluble ActRIIB-Fc receptor; not shown: human IgG1 Fc region) SGRGEAETRECIYYNANWELERTNQSGLERCEGEQDKRLHCYASWRNSSGTIELVKKGCWLDDFNCYDRQECVATEENPQVYFCCCEGNFCNERFTHLPEAGGPEVTYEPPPTAPTLLT
